In publication PMC7984725 (Biochemistry, 2018):

Biological target: human linker histone H1.0 (human, UniProt P07305 1-194)
Experiment: ITC

Sequence of human linker histone H1.0 (P07305 whole entry): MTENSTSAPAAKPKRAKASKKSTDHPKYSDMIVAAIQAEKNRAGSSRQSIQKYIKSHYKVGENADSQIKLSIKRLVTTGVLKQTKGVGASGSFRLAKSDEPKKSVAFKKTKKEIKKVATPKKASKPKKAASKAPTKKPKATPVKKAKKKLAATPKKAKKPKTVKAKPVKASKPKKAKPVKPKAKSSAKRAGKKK

Kd: 460 nM | stoichiometry N: 1
B1: prothymosin-α (ProTα) (natural protein, UniProt P06454 1-111, looked up)
chain: MSDAAVDTSSEITTKDLKEKKEVVEEAENGRDAPANGNAENEENGEQEADNEVDEEEEEGGEEEEEEEEGDGEEEDGDEDEEAESATGKRAAEDDEDDDVDTKKQKTDEDD
